These results are taken from patent US7550425B2, “Diuretic peptide conjugates” (Zealand Pharma A/S, priority 2000, dated 2009).

The target of series [1] is hORL1 receptor (Homo sapiens, UniProt P41146). Put plainly: Binding to human ORL1 receptor expressed in CHO cells. The arrangement: expressed in transfected cells; host or cells: CHO.
Series [2] relates to conscious Sprague Dawley rats. It is filed as in vivo, rat. As to the method:
In the conscious rat model, the animal is chronically instrumented with catheters in the urinary bladder, the femoral artery, and the femoral vein. The animal receives a continuous i.v. infusion with isotonic saline, 50 μl/min. Urine is collected in vials in consequtive urine collection periods of 10 min each. After two control periods, the test compound is administered and fractionated urine collections (10 min periods) are continued for at least two hours. Urinary concentrations of sodium and potassium are determined by flame photometry (Instrumentation Laboratory 943) using caesium as internal standard.
The diuretic effect of the peptide conjugates of the invention has been tested in conscious rats, where Compound 1 elicits a powerful and sustained diuretic response. Cardiovascular and renal responses produced by i.v. infusion of nociceptin (Phoenix Pharmaceuticals) and Compound 1 have been studied in conscious Sprague Dawley rats. The results are shown in FIGS. 2 to 8 wherein HR is heart rate, MAP is mean arterial pressure, V is urine flow rate, UNaV is urinary excretion rate of sodium, RSNA is renal sympathetic nerve activity expressed as % of the control level, Cosm is the osmolar clearance, and CH2O is free water clearance.
Furthermore, the effects of i.v. bolus administration of nociceptin (30 and 100 nmol/kg, Phoenix Pharmaceuticals) and nociceptin-NH2 (30 nmol/kg) on heart rate, arterial pressure and RSNA were studied in groups of 6 conscious Sprague-Dawley rats.
[…] After stabilization of urine flow rate and urinary sodium excretion, urine was collected during a 20-min control period. After this, the i.v. bolus injection was given or the i.v. infusate was switched to a solution of isotonic saline containing Compound 1 (i.v. infusion experiments). From the time of drug administration, experimental urine samples (10-min consecutive periods) were taken for 80 min.
One hour prior to the start of each experiment a food pellet (standard rodent chow) was placed within access to the rat though a hole in the rat holder. The number and time of feeding responses (i.e., times in which the rat began to eat the food pellet) was recorded before, and after drug administration. If a positive feeding response was observed, the pellet was removed from the restrainer to prevent feeding-induced alterations in heart rate and/or mean arterial pressure. At 10-min intervals, the food pellet was presented to the rat to determine the duration of the feeding response.

In series [3] the test system is mouse vas deferens. The series can be described thus: Mouse vas deferens assay: inhibition of electrically-induced contraction. The note with it: cumulative addition; data not shown. The source says:
The compounds of the present invention are pharmacologically active, e.g. as nociceptin agonists or partial agonists, and a useful method of showing activity is described by Hughes J., Kosterlitz H. W., Leslie F. M.: Effect of morphine on adrenergic transmission in the mouse vas deferens. Assessment of agonist and antagonist potencies of narcotic analgesics^[4]. The isolated electrically stimulated mouse vas deferens preparation has been widely used to evaluate the functional pharmacological actions of opioid agonists and antagonists in vitro^[5].
(§1) The vas deferens from male NMRI albino mice weighing 30-40 g were placed in a SCHULER organ bath Type 809, Hugo Sachs Elektronik, Germany, and perfused with a 37° C., modified Krebs solution (NaCl 6,9 g/L, KCl 0.35 g/L, KH2PO4 0.16 g/L, NaHCO3 2.1 g/L, Glucose H2O 2.0 g/L, CaCl2 2.52 mL/L). The solution was gassed with carbogen (95% O2 and 5% CO2) throughout the experiment. The tissue was electrically stimulated through two silver electrodes directly in the organ bath using a HSE Stimulator I Type 215. Stimulation of the tissue was performed by applying a supramaximal voltage (15 Volts) in trains of 10 square pulses every 60 s, each of 1 ms duration with a frequency of […]. Concentration-response curves were performed by adding test substances that relax mouse vas deferens smooth muscles cumulatively to the organ baths. The test substances used in the assay were nociceptin in an isotonic saline solution, Compound 1 (as the trifluoroacetate in an isotonic saline solution), Compound 2 (as the trifluoroacetate in an isotonic saline solution), and the hexapeptide Ac-RYYRWK-NH2 (SEQ ID NO: 1) (as the trifluoroacetate in an isotonic saline solution).

The test system of series [4] is nociceptin-induced smooth muscle relaxation in mouse vas deferens. Put plainly: Mouse vas deferens assay: antagonism of nociceptin-induced relaxation (Schild pA2). The note with it: Schild equation; antagonism of nociceptin-induced relaxation; n = 4. As to the method:
as §1
The effects of Ac-RYYRWK-NH2 (SEQ ID NO: 1) and Compound 1 on nociceptin-induced relaxation in the mouse vas deferens assay were also tested. […] Using the Schild equation ^[7], the pA2 values which indicates affinity of a compound as an antagonist were calculated.

Series [5] in a line: In vitro stability in heparin stabilised mouse plasma. It is filed as in vitro ADME. The note with it: heparinised mouse plasma, 37° C., read-out: half-life t½ of degradation. As to the method:
Degradation of peptides is almost exclusively seen in the presence of enzymes, e.g. in the bloodstream. An important feature of a putative drug is whether it is quickly degraded in vivo or whether it is able to conduct its effects over a longer period of time. To be able to examine the stability of the peptide conjugates of the present invention degradation was tested in heparin stabilised mouse plasma (obtained from Harlan Seralab, UK).
The stability studies were run in triplicate. 100 μL of a 1 mg/mL solution of the test compound (peptide conjugate) was added to an Eppendorf tube, containing 900 μL plasma, incubated at 37° C. Immediately after addition, a sample of 100 μL was removed and added to an Eppendorf tube, containing 10 μL of extraction solution (50% TFA (trifluoroacetic acid) in MeCN, v/v). This sample constitutes t=0. […] The samples are centrifuged at 20,000×g, and the supernatant was transferred to vials and analysed by high-performance liquid chromatography (HPLC).
The analysis was performed on a HP1100 HPLC with a quaternary pump. The column used was a Vydac 201SP5215, and the apparatus comprises an autosampler, a column oven, a variable UV detector and a fluorescence detector. […] These values were transferred to Microsoft Excel, where half-lives (t½) and rate constant (kobs) for Ac-RYYRWK-NH2 (SEQ ID NO: 1) and Compound 1 were determined by fitting to the equation.

Series [6] in a line: In vitro stability in heparinised human plasma. Format: in vitro ADME. The protocol:
In addition, the degradation of Compound 1 of the invention has been studied in heparinised human plama.
The stability of peptides is analysed in human plasma. The peptides are incubated at 37° C. in plasma and samples taken at approx. 8 regular intervals between t=0 and t=390 min for Compound 1 and nociceptin-NH2, and at 9 intervals between t=0 and t=32 min for Compound CE1 are analysed by HPLC. […] This is done by subsequent injections of the drug, plasma, and a co-injection with the drug and the plasma, followed by optimisation of the LC method parameters until a satisfactory separation is obtained. Three parallel experiments are performed for each plasma type. 100 μl of peptide is mixed with 900 μl plasma at t=0 and incubated at 37° C. (drug-plasma mixture conc. 0.1 mg/ml). Samples of 100 μl of the drug-plasma mixture are removed at appropriate intervals and the degradation stopped by precipitation of the sample with 10 μl MeCN:TFA 50:50 v/v. A control plasma sample without the drug treated in the same manner is also taken. The plasma samples are centrifuged for 15 min. at 12,000 rpm (Eppendorf centrifuge) at ambient temperature. The resulting supernatant solution is transferred to 300 μl HP autosamler vials and analyzed by HPLC. HPLC analysis are performed as follows:
Ac-RYYRWK-NH2 (SEQ ID NO: 1) and Compound 1
The samples are analysed in the following order: blank, the peptide at 0.1 mg/mL, the plasma without the peptide, the three parallel samples for t=0, the three parallel samples for t=5 min. the three parallel samples for t=60 min. etc. And finally the three parallel samples for t=0 are repeated to make sure that there have been no degradation or other failure during the analyses. The sample concentrations (peak height in mAU) are plotted vs. time and fitted to a function describing a mono exponential decay (Excel). The half-lives of the peptides in plasma are presented in Table 7 as mean (n=3)±standard deviation.

For series [7], the target named is T1, human ORL1 receptor (human, UniProt P41146 1-370). Put plainly: cell-based or functional assay.
For series [8], the target named is T1, human ORL1 receptor. Put plainly: cell-based or functional assay. The source holds these as a separate data set.
Series [9] has as its target T1, human ORL1 receptor. The series can be described thus: binding to hORL1 receptor expressed in CHO cells, one experiment.

Where two headings read alike, the source gives them in different places. Peptide text beside a SMILES is read from it. Where only a bound is given, the exact number is not on record here.

T1 sequence (P41146 whole entry): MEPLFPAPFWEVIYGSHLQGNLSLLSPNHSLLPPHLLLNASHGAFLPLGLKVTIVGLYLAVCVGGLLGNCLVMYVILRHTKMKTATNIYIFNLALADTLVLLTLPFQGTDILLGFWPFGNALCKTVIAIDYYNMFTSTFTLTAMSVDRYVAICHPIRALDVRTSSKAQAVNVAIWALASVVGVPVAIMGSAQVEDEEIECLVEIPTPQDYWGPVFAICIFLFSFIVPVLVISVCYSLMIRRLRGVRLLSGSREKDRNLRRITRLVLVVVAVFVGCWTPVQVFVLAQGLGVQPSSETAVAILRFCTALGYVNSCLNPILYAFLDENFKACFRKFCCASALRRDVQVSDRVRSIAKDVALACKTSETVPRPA
Sequence of hORL1 receptor (P41146 whole entry): as above

`CC(=O)N[C@H](CCCCN)C(=O)N[C@H](CCCCN)C(=O)N[C@H](CCCCN)C(=O)N[C@H](CCCCN)C(=O)N[C@H](CCCCN)C(=O)N[C@H](CCCCN)C(=O)N[C@H](CCCCN)C(=O)N[C@H](Cc1c[nH]c2ccccc12)C(=O)N[C@H](CCCNC(=N)N)C(=O)N[C@H](Cc1ccc(O)cc1)C(=O)N[C@H](Cc1ccc(O)cc1)C(=O)N[C@H](CCCNC(=N)N)C(N)=O` [Compound 7, Ac-KKKKKKKWRYYR-NH2 (all D)] (HELM PEPTIDE1{[ac].[dK].[dK].[dK].[dK].[dK].[dK].[dK].[dW].[dR].[dY].[dY].[dR].[am]}$$$$V2.0): the half-inhibitory concentration (IC50) (commonly the concentration that gives 50% inhibition) in [1] is > 100 nM.

For `CC(C)C[C@H](NC(=O)[C@H](CCCCN)NC(=O)[C@H](CCCN=C(N)N)NC(=O)[C@H](C)NC(=O)[C@H](CO)NC(=O)[C@H](CCCCN)NC(=O)[C@H](CCCN=C(N)N)NC(=O)[C@H](C)NC(=O)CNC(=O)[C@@H](NC(=O)[C@H](Cc1ccccc1)NC(=O)CNC(=O)CNC(=O)[C@@H](N)Cc1ccccc1)[C@@H](C)O)C(=O)N[C@@H](C)C(=O)N[C@@H](CC(N)=O)C(=O)N[C@@H](CCC(N)=O)C(=O)O` [nociceptin, reference compound], in series [2] (i.v. bolus 30 and 100 nmol/kg, data not shown), the “heart rate, arterial pressure and RSNA” value was “rapid bradycardia, a hypotensive response and initial RSNA suppression”. Besides, the MAP response result in [2] (i.v. infusion 11 nmol/kg/min, FIG. 2) was “significantly decreases MAP”. With Ac-KKKKKKRYYRWK-NH2 [Compound 2], the “potency order for inhibition of electrically-induced contraction of the mouse vas deferens” value in [3] was “nociceptin>Compound 1=Compound 2>>Ac-RYYRWK-NH2”. Turning to “Ac-RYYRWK-NH2 [Compound CE1, Ac-Arg-Tyr-Tyr-Arg-Trp-Lys-NH2, reference compound]”, the “potency order for inhibition of electrically-induced contraction of the mouse vas deferens” value in series [3] is “nociceptin>Compound 1=Compound 2>>Ac-RYYRWK-NH2”. Also, the pA2 value in series [4] is recorded as 7.8 (n = 4). Further, the half-life at 0.1 mg/mL in series [5] is 2 to 5 min. Moreover, the half-life at 0.1 mg/ml is 50.7 min in series [6] (37° C., mean (n=3) +/− deviation, read-out: T1/2 in min (degradation in human heparinised plasma)) and < 60 min in series [6] (read-out: half life in plasma). Turning to “Compound 8 Ac-D-Arg-D-Tyr-D-Tyr-D-Arg-D-Trp-D-Lys-D-Lys-D-Lys-D-Lys-D-Lys-D-Lys-D-Lys-NH2 (peptide)”, the Efficacy EC50 (nM), inhibition of forskolin-induced cAMP formation in series [7] was 59 nM. For Ac-KKKKKKKWRYYR-NH2 [Compound 6 Ac-Lys-Lys-Lys-Lys-Lys-Lys-Lys-Trp-Arg-Tyr-Tyr-Arg-NH2], the “Efficacy EC50 (nM), inhibition of forskolin-induced cAMP formation” value (“Efficacy EC50 (nM), inhibition” below) in series [8] was 135 nM. In [9], this molecule registered a concentration for half-maximal inhibition (IC50) of 115 nM. As to Ac-KYYRWKKKKKKK-NH2 [Compound 9 Ac-Lys-Tyr-Tyr-Arg-Trp-Lys-Lys-Lys-Lys-Lys-Lys-Lys-NH2], the “Efficacy EC50 (nM), inhibition” value in series [8] was 0.035 nM. In [9], this molecule gave an IC50 of 3.7 nM.

As for Ac-RYYRWKAKKKKK-NH2 [Compound 11 Ac-Arg-Tyr-Tyr-Arg-Trp-Lys-Ala-Lys-Lys-Lys-Lys-Lys-NH2], the half-maximal inhibitory concentration (IC50) in [9] came to 0.27 nM. Still for that read-out and setting: the same measure for Ac-RYYRIKKKKKKK-NH2 [Compound 10 Ac-Arg-Tyr-Tyr-Arg-Ile-Lys-Lys-Lys-Lys-Lys-Lys-Lys-NH2]: 0.51 nM.

Consider H-NEEEEERYYRWKKKKKKK-NH2 [Compound 3 H-Asn-Glu-Glu-Glu-Glu-Glu-Arg-Tyr-Tyr-Arg-Trp-Lys-Lys-Lys-Lys-Lys-Lys-Lys-NH2], for which, in [8], the “Efficacy EC50 (nM), inhibition” value came out at 83 nM. The same molecule yielded an IC50 in [9] of 235 nM. On to Ac-RYYRWKKKKKK-NH2 [Compound 12 Ac-Arg-Tyr-Tyr-Arg-Trp-Lys-Lys-Lys-Lys-Lys-Lys-NH2], for which the 50% inhibitory concentration (IC50) in series [9] came out at 0.15 nM.

B1: Compound CE1 Ac-Arg-Tyr-Tyr-Arg-Trp-Lys-NH2 (peptide)
peptide: Ac-RYYRWK-NH2
notes: Unconjugated comparison hexapeptide; also called Ac-RYYRWK-NH2
For B1, the “Efficacy EC50 (nM), inhibition” value in series [8] came out at 0.41 nM. Moreover, the half-maximal inhibitory concentration (IC50) in series [9] is 0.31 nM. With Ac-RYNRWKKKKKKK-NH2 [Compound 4 Ac-Arg-Tyr-Asn-Arg-Trp-Lys-Lys-Lys-Lys-Lys-Lys-Lys-NH2], in [8], the “Efficacy EC50 (nM), inhibition” value came to 91 nM.
